According to the RNAGym collection of RNA variant scans (doi:10.1073/pnas.2313332121):

B1: TPR t1 (parent)
chain: GACCAAUCUGCCCUCAGAGCUCGAGAACAUCUUCGGAUGCAGAGGAGGCAGGCUUCGGUGGCGCGAUAGCGCCAACGUCCUCAACCUCCAAUGCAUCCCACCACAUGAUGAUGCCUGAAGAGCCUUGGUUUUUUG

Variants of: B1
Test: polymerase ribozyme fitness, log enrichment relative to wild type (log ratio); higher = more active; in vitro selection for triplet polymerase activity
In short: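 Mutant libraries of both subunits of a heterodimeric triplet polymerase ribozyme were PCR-built, transcribed, and selected once in triplicate, with frozen incubation at −7 °C and capture of gel-excised extended constructs on streptavidin beads before RT-PCR. Illumina sequencing of input and output libraries was filtered to genotypes with ≥10 input reads and ≥1 read per output. Fitness is the logarithm of genotype enrichment over wild-type enrichment, using inverse-variance-weighted replicate averages. The logarithm is base 2.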

Row | Variant | polymerase ribozyme fitness (log ratio)
1 | GACUAAUCUGCCCUCAGAGCUCGAGAACAUCUUCGGAUGCAGAGGAGGCAGGCUUCGGUGGCGCGAUAGAGCCAACGUCCUCAAGUUCCAAUGCAUCCCACCACAUGAUGAUGCCUGAAGAGCCUUGGUUUUUUG | -3.72
2 | GACUAAUCUGCCCUCAGAGCUCGAGAACAUCUUCGGAUGCAGAGGAGGCAGGCUUCGGUGGCGCGAUAGGGCCAACGUCCUCAACCUCCAAUGCAUCCCACCACAUGAUGAUGCCUGAAGAGCCUUGGUUUUUUG | -2.23
3 | GACUAAUCUGCCCUCAGAGCUCGAGAACAUCUUCGGAUGCAGAGGAGGCAGGCUUCGGUGGCGCGAUAGCGACAACGUCCUCAACCUCCAAUGCAUCCCACCACAUGAUGAUGCCUGAAGAGCCUUGGUUUUUUG | -0.193
4 | GACUAAUCUGCCCUCAGAGCUCGAGAACAUCUUCGGAUGCAGAGGAGGCAGGCUUCGGUGGCGCGAUAGCGACAACGUCCUCAAUCUCCAAUGCAUCCCACUACAUGAUGAUGCCUGAAGGGCCUUGGUUUUAUG | 0.405
5 | GACUAAUCUGCCCUCAGAGCUCGAGAACAUCUUCGGAUGCAGAGGAGGCAGGCUUCGGUGGCGCGAUAGCGGCAACGUCCUCAACCUCCAAUGGAUCCCACCACAUGAUGAUACCUGAAGAUCCUUGGUUUUUUG | -3.87
6 | GACUAAUCUGCCCUCAGAGCUCGAGAACAUCUUCGGAUGCAGAGGAGGCAGGCUUCGGUGGCGCGAUAGCGCCAAGGUCCUCAACCUCCAAUGCAUCCCACCACAUGAUGAUGUCUGAAGAGCCUUGGAUUUUUG | -4.95
7 | GACUAAUCUGCCCUCAGAGCUCGAGAACAUCUUCGGAUGCAGAGGAGGCAGGCUUCGGUGGCGCGAUAGCGCCAACGUCCUCAAUCUCCAAUGCAUCCCACCACAUGAUGAUGCCUGAAGAGCCUUGGUUUUUUG | -1.63
8 | GACUAAUCUGCCCUCAGAGCUCGAGAACAUCUUCGGAUGCAGAGGAGGCAGGCUUCGGUGGCGCGAUAGCGCCAACGUCCUCAACUUCCAAUGCAUCCCAGCACAUGAUGAUGCCUGAAGAGCCUUGGUUUUUUG | -1.82
9 | GACUAAUCUGCCCUCACAGCUCGAGAACAUCUUCGGAUGCAGAGGAGACAGGCUUCGGUGGCGCGAUACCGCCAACGUCCUCAACCUCCAAUGCAUCCCACCACAUGAUGAUGCCUGAACAGCCUUGGUUUUUUG | -4.5
10 | GACUAAUCUGCCCUCAGAGCUCGAGAACAUCUUCGUAUGCAGAGGAGGCAGGCUUCGGUGGCGCGAUAGCGCCAACGUCCUCAACCUCCAAUGCAUCCCACCACAUGAUGAUGCCUGAAGAGCCUUGGUUUUUUG | -1.82
11 | GACUAAUCUGCCCUCAGAGCUCGAGAACAUCUUCGUAUGCAGAGGAGGCAGGCUUCGGUGGCGCGAUAGCGCUAACGUCCUCAACCUCCAAUGCAUCCCACCACAUGAUGAUGCCUGAAGAGCCUUAGUUUUUUG | -2.05
12 | GACUAAUCUGCCCUCAGAGCUCGAGAACAUCUUCGGAUGCAUAGGAGGCAGGCUUCGGAGGCGCGAUAGCGCCAACGUCCUCAACCUCCAAUGCAUCCCACCACAUGAUGAUGCCUGAAGAGCCUUGGUUUUUUG | -2.49
13 | GACUAAUCUGCCCUCAGAGCUCGAGAACAUCUUCGGAUGCAGAUGAGGCAGGCUUCGGUGGCGCGAUAGCGCCAAAUUCCUCAACCUCCACUGCAUCCCACCACAUGAUGAUGCCUGAAAAGCCUUGGUUUUUUG | -2.7
14 | GACUAAUCUGCCCUCAGAGCUCGAGAACAUCUUCGGAUGCAGAGGAGUCAGUCUUCGGUGGCGCGAUAGCGCCAACGUCCUCAACCUCCUAUGCAUCCCACCACAUGAUGAUGCCUGAAGAGCGUUGGUUUUUUG | -1.92
15 | GACUAAUCUGCCCUCAGAGCUCGAGAACAUCUUCGGAUGCAGAGGAGGCAGACUUCGGUGGUGCGAUAGCGCCAACGUCCUGAACCUCCAAUGCAUCCCACCACAUGAUGAUGCCUGAACAGCCUUGGUUUUUUG | -0.476
16 | GACUAAUCUGCCCUCAGAGCUCGAGAACAUCUUCGGAUGCAGAGGAGGCAGGCUUCGGUUGCGCGAUAGCGCCAACGUCCUCAACCUCCAAUGCAUCCCACCACAUGAUGAUGUCUGAAGAGCCUUGGUUUUUUG | -3.78
17 | GACUAAUCUGCCCUCAGAGCUCGAGAACAUCUUCGGAUGCAGAGGAGGCAGGCUUCGGUGGCUCGAUAGCGCCAACGUCCUCAACCUCCAAUGCAUCCCACCACAUGAUGAUGCCUGAAGAGCCUUGGUUUUUUG | -1.66
18 | GACUAAUCUGCCCUCAGAGCUCGAGAACAUCUUCGGAUGCAGAGGAGGCAGGCUUCGGUGGCGCGAUAACGCCAACGUCCUCAACCUCUAAUGCAUCCCACCACAUGAUGAUGCCUGAAGAGGCUUGGUUUUUUG | -3.15
19 | GACUAAUCUGCCCUCAGAGCUCGAGAACAUCUUCGGAUGCAGAGGAGGCAGGCUUCGGUGGCGCGAUAUCGCCAACGUCCUCAACCUCCAAUUCAUCCCACCACAUGAUGAUGCCUGAAGAGCCUUGGUUUUUUG | -1.17
20 | GACUAAACUGACCUCAGAGCUCGAGAACAUCUUCGGAUGCAGAGGAGGCAGGCUUCGGUGGCGCGAUAGCGCCAACGUCCUCAACCUCCAAUGCAUCCCACCACAUGAUGAUGCCUGAAGAGCCUUGGUUUUUUG | -0.665
21 | GACUAACCUGCCCUCAGAGCUCGAGAACAUCUUCGGAUGCAGUGGAGGCAGGCUUCGGUGGCGCGAUAGUGCCAACGUCCUCAAACUCCAAGGCAUCCCACCACAUGAUGAUGCCUGAACAGCCUUGGUUUUUUG | -5.06

Row | Variant | polymerase ribozyme fitness (log ratio)
22 | GACUAAGCUGGCAUCAGAGCUCGAGAACAUCUUCGGAUGCAGAGGAGGCAGGCUUUGGUGGCGCGAUAGCGCCAACGUCCUCAACCACCAAUGCAUCCCACCACAUGAUGAAGCCUGAAGAGCCUUGGUUUUUUG | 1.5
23 | GACUAAUCUGCCCACAGAGCUCGAGAACAUCUUCGGAUGCAGAGGAGGCAGGCUUCGGUGGCGCGAUAGCGCUAACGUCCUCAACCUCCAAUGCAUCCCACCACAUGAUGAUGCCUGAAGAGCCUUGGUUUUUUG | -4.13
24 | GACUAAUCUGCCCUCAGAGCUCGAGAACAUCUUCGGAUGCAGAGGAGGCAGGCUUCGGUGGCGCGAUAGCGCCAACGUCCACAACCUCCAAUGCAUCCCACCACAUGAUGAUGCCUGAAGAGCCUUGGUUUUUUG | -1.77
25 | GACUAAUCUGCCCUCAGAGCUCGAGAACAUCUUCGGAUGCAGAGGAGGCAGGCUUCGGUGGCGCGAUAGCGCCAACGUCCUCAACCACCAAUGCAUCCCACCACAUGAUGAUGCCUGAAGAGCCUUGGUUUUUUG | -1.16
26 | GACUAAUCUGCCCUCAGAGCUCGAGAACAUCUUCGGAUGCAGAGGAGGCAGGCUUCGGUGGCGCGAUAGCGCCAACGUCCUCAACCUCCAAAGCAUCCCACCACAUGAUGAUGCCUGAAGAGCCUUGGUUUUUUG | -4.01
27 | GACUAAUCUGCCCUCAGAGCUCGAGAACAUCUUCGGAUGCAGAGGAGGCAGGCUUCGGUGGCGCGAUAGCGCCAACGUCCUCAACCUCCAAUGCAUCCCACCACAUGAUGAUGCCUGAAGAGCCUUGGUAUUUUG | -1.49
28 | GACCCAUCUGCCCUCGGAGUUCGAGAACAUCUUCGGAUGCAGGGGAGGCAGGCUUCGGUGGCGCGAUAGCGCCAACGUCCUCAACCUCCAAUGCAUCCCACCACAUGAUGAUGCCUGAAGGGCCUUGGUUUUUUG | -0.652
29 | GACCCAUCUGCCCUCAGCGCUCGAGAACAUCUUCGGAUGCAGAGGAGGCAGGCUUCGGUGGCGCGAUAGCGCCAACGUCCUCAACCUCCAAUGCAUCCCACCACAUGAUGAUGCCUGAAGAGCCUUGGUUUUUUG | -2.78
30 | GACCCAUCUGCCCUCAGAGCUCGAGGACAUCUUCGGAUGCAGAGGAGGCAGGCUUCGGUGGCGCGAUAGCGCCAACGUCCUCAACCUUCAAUGCAUCCCACCACAUGAUGAUGCCCGAAGAGCCUUGGAUUUUUG | -6.24
31 | GACCCAUCUGCCCUCAGAGCUCGAGUACAUCUUCGGAUGCAGAGGAGGCAGGCUUCGGUGGUGCGAUAGCGCCAACGUCCUCAACCUCCAAUGCAUCCCACCACAUGAUGAUGCCUGAAGAGCCUUGGUUUUUUG | -4.3
32 | GACCCAUCUGCCCUCAGAGCUCGAGUACAUCUUCGAAUGCAGAGGAGGCAGGCUUCGGUGGCGCGAUAGCGCCAACGUCCUCAACCUUCAAUGCAUCCCACCACAUGAUGAUGCCUGAAGAGCCUUGGUUUUUUG | -6.38
33 | GACCCAUCUGCCCUCAGAGCUCGAGAGCAUCUUCGGAUGCAGAGGAGGCAGGCUUCGGUGGCCCGAUAGCGCCAACGUCCUCAACCUCCAAUGCAUCCCACCACAUGAUGAUGCCUGAAGGGCCUUGGUUUUUUG | 0.00315
34 | GACCCAUCUGCCCUCAGAGCUCGAGAACAUCUUCGGCUGCAGAGGAGGCAGGCUUCGGUGGCGCGAUAGUGCCAACGUCCUCAACCUCCAAUGCAUCCCACCACAUGAUUAUGCCUGAAGAGCCUUGGUUUUUUG | -4.1
35 | GACCCAUCUGCCCUCAGAGCUCGAGAACAUCUUCGGAUGCAGGGGAGGCAGGUUUCGGUGGCCCGAUAGCGCCAACGUCCUCAACCUCCAAUGCAUCCCACCACAUGAUGAUCCCUGAAGAGCCUUGGUUUUUUG | -3.6
36 | GACCCAUCUGCCCUCAGAGCUCGAGAACAUCUUCGGAUGCAGUGGAGGCAGGCUUCGGUGGCGCGAUAGCGCCAACGCCCUCAACCUCCAAUCCAUCCCACCACAUGAUGAUGCCUGAAGAGCCUUGGUUUUUUG | -4.85
37 | GACCCAUCUGCCCUCAGAGCUCGAGAACAUCUUCGGAUGCAGAGGAGGCAGGCUUCGGUGGCGCGAUAGCGCCCACGUCCUCAACCUCCAAUGCAUCCCACCACAUGAUGAUGCCUGAAGAGCCUUGGUUUUUUG | -1.06
38 | GACCCAUCUGCCCUCAGAGCUCGAGAACAUCUUCGGAUGCAGAGGAGGCAGGCUUCGGUGGCGCGAUAGCGCCGACGUCCUCAAACUCCAAUGCAUCCCACCAUAUGAUGAUGCCUGAAGAGCCUUGGUUUUUUG | -0.8
39 | GACCCAUCUGCCCUCAGAGCUCGAGAACAUCUUCGGAUGCAGAGGAGGCAGGCUUCGGUGGCGCGAUAGCGCCAACGUCCUCAUCCUCCAAUGCAUCCCACCACAUGAUGAUGCCUGAAGAGCCUUGGUUUUUUG | -1.12
40 | GACCCAUGUGCCCUCAGAGCUCGAGUACAUCUUCGGAUGCAGAGGAGGCAGGCUUCGGUGGCGCGAUAGCGCCAACGUCCUCAACCUCCAAUGCAUCCCACCACAUGAUGAUGCCUGAAGAGCCUUGGUUUUUUG | -1.68
41 | GACCCAUGUGCCCUCAGAGCUCGAGAACAUCUGCGGAUGCAGAGGAGGCAGGCUUCGGUGGCGCGAUAGCGCCAACGUCCUCAACCUCCAAUGCAUUCCACCACAUGAUGAUGCCUGAAGAGCCUUGGUUUUUUG | -5.64
42 | GACCCAUUUGCCCUCUGAGCUCGAGAACAUCUUCGGAUGCAGAGUAGGCAGGCUUCGGUGGCACGAUAGCGCCAACGUCCUCAACCUCCAAUGCAUCCCACCACAUGAUGAUGCCUGAAGAGCCUUGGUUUUUUG | -2.38
